Data on one molecule can be found in patent publication US11161912B2, “Heparanase-neutralizing monoclonal antibodies” (Technion Research & Development Foundation Limited, priority 2015, dated 2021).

Test [1] has as its target T1, heparanase (Homo sapiens, UniProt Q9Y251).
T1 sequence (Q9Y251 36-543): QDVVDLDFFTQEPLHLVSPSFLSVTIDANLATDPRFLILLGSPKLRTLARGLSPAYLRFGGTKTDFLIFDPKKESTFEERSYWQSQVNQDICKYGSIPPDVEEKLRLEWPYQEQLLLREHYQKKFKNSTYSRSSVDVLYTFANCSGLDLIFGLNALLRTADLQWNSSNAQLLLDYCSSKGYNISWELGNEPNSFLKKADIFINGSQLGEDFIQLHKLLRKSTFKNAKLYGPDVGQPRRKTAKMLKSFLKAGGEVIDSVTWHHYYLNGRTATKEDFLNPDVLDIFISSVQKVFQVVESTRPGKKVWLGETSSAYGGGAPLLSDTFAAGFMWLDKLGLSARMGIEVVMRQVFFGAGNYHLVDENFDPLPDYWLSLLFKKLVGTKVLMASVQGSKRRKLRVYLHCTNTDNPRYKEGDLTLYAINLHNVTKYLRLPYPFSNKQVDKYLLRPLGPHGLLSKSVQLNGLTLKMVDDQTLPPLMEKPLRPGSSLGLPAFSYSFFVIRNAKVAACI
Briefly: Intracellular heparanase content of heparanase-transfected 293 cells (immunofluorescence, immunoblot). The test is classed as cell-based. The conditions noted are these: cells over-expressing heparanase grown with mAb for two days. On the procedure: FIG. 3A. HEK 293 cells were incubated with latent 65 kDa (upper panel) or GS3 constitutively active heparanase (1 μg/ml; third panel) and the indicated mAbs (10 μg/ml). The cell medium was aspirated at the time designated and cell lysates were subjected to immunoblotting applying anti-heparanase antibody (upper and third panels). […] Heparanase-transfected 293 cells were grown with control mouse IgM or mAb 9E8 for two days. Cells were then fixed with methanol and subjected to immunofluorescent staining applying anti heparanase antibody (second panel) or lysed and subjected to immunoblotting applying anti-heparanase antibody (fourth panel). Purified recombinant active heparanase (200 ng) was pre-incubated with control mouse IgM ( ? ), mAb 8A5 ( ? ), mAb 9E8 ( ? ), all at 2 μg/ml, for 2 h in serum-free RPMI medium on ice. The mixture was then applied onto ^35S-labeled ECM-coated dishes and heparanase activity was determined as described above (lower panel). FIG. 3B, C. ESb mouse T-lymphoma cells (5×10^5) were inoculated subcutaneously in NOD/SCID mice (n=5) and treated with PG545 (20 mg/kg, once a week) (B) or the indicated mAb (500 μg/mouse every other day) (C). FIG. 3C. […] Quantification of the extent of CD45 staining is shown graphically in the lower panel. […]
(In general: Immunoblotting shows a protein as a band on a membrane.)

Test [2] addresses T2, heparanase (latent 65 kDa or GS3 constitutively active) (Homo sapiens, UniProt Q9Y251).
T2 construct: host or cells: added exogenously to HEK 293 cells
T2 sequence (Q9Y251 36-543): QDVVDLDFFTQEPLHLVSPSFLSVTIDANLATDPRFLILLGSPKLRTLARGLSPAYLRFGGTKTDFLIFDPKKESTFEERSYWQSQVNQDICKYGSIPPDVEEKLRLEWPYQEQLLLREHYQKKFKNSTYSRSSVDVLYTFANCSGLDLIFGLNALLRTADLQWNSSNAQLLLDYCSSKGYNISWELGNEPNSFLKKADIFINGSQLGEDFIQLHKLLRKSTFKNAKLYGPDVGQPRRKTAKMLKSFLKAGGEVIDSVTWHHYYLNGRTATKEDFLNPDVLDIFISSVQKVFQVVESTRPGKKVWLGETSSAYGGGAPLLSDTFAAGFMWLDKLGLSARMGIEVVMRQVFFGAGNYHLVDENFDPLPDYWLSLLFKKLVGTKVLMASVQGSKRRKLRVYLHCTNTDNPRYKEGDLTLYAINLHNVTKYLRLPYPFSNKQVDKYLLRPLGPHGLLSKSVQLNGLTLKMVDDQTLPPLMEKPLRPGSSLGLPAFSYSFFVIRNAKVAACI
Briefly: Cellular uptake and processing of heparanase in HEK 293 cells (immunoblot). The test is classed as cell-based. The conditions noted are these: mAb 10 μg/ml. An excerpt:
(§1) Development of heparanase-neutralizing monoclonal antibodies: In order to target heparanase activity even more specifically, a panel of monoclonal antibodies (mAb) directed against the KKDC peptide (Lys158-Asn171) which comprises the substrate (HS)-binding domain of heparanase (Levy-Adam F, et al. 2005, J Biol Chem 280(21):20457-20466) were developed. In order to validate that the resulting antibodies target the heparin/HS binding domain, cellular uptake of latent 65 kDa heparanase in the absence or presence of the various newly generated mAbs was tested. This system appeared most relevant because previous studies have shown that heparanase uptake is HS-dependent (Gingis-Velitski S, et al. 2004. J Biol Chem 279(42):44084-44092). […] Moreover, liver metastasis of ESb cells was inhibited 4-5 fold by mAb 9E8 (FIG. 3C). The availability of highly specific heparanase-neutralizing mAbs led to the conclusion that heparanase enzymatic activity is required for cell invasion and tumor metastasis.
(§2) FIG. 3A. HEK 293 cells were incubated with latent 65 kDa (upper panel) or GS3 constitutively active heparanase (1 μg/ml; third panel) and the indicated mAbs (10 μg/ml). […] The mixture was then applied onto ^35S-labeled ECM-coated dishes and heparanase activity was determined as described above (lower panel). […] Quantification of the extent of CD45 staining is shown graphically in the lower panel. […]

Test [3] relates to heparanase (latent 65 kDa or GS3 constitutively active). Described as above. The test is classed as cell-based. The conditions noted are these: GS3 1 μg/ml, mAb 10 μg/ml.
Text: as §1, §2

Test [4] deals with Raji-luciferase cells. Briefly: Raji-luciferase lymphoma, tail vein inoculation, bone marrow growth by IVIS imaging. The test is classed as in vivo, human. As to conditions: mAb 600 μg/mouse every other day, IVIS. The procedure:
Tumorigenicity. Luciferase-labelled CAG myeloma (5×10^6) or Raji lymphoma (1×10^6) cells were injected into the tail vein of NOD/SCID mice (n=5). Mice were treated with PG545 (20 mg/kg, once weekly), mAb 9E8 (600 μg/mouse) every other day starting one day following cell inoculation and tumor growth was examined by IVIS imaging. At termination, mice were sacrificed, the backbones were excised, fixed in formalin and following de-calcification with 10% EDTA solution were embedded in paraffin and subjected to histological and immunohistochemical analyses essentially as described (Weissmann et al, 2016, Proc Natl Acad Sci USA 113:704-709). Dose of 25-30 mg/kg (i.e., 500-600 μg mAb/mouse) is typical in cancer restraining experiments (Van Looy T, et al. 2015, Transl Oncol 8(2):112-118).
IVIS imaging. Bioluminescent imaging of the luciferase-expressing tumors was performed with a highly sensitive, cooled charge coupled device (CCD) camera mounted in a light-tight specimen box (IVIS; Xenogen Corp., Waltham, Mass.). Briefly, mice were injected intraperitoneally with D-luciferin substrate at 150 mg/kg, anesthetized and placed onto a stage inside the light-tight camera box, with continuous exposure to isoflurane (EZAnesthesia, Palmer, Pa.). Light emitted from the bioluminescent cells was detected by the IVIS camera system with images quantified for tumor burden using a log-scale color range set at 5×10^4 to 1×10^7 and measurement of total photon counts per second (PPS) using Living Image software (Xenogen) (Weissmann et al, 2016, Proc Natl Acad Sci USA 113:704-709).
FIG. 4A. Raji-luciferase cells (1×10^6) were injected into the tail vein of NOD/SCID mice (n=5). Mice were treated with PG545 (20 mg/kg once a week) starting one day after cell inoculation and IVIS imaging was applied to quantify tumor load. […] NOD/SCID mice (n=5) were inoculated (iv) with Raji-luciferase cells and mice were treated with mAb 9E8 (600 μg/mouse every other day) (FIG. 4C) and tumor growth was evaluated by IVIS imaging (left panels). Quantification of luciferase signals is shown graphically in the right lower panel.

Entries after “also recorded” stand apart in the source; their conditions may differ.

B1: mAb 9E8: monoclonal IgM raised against KKDC peptide (Lys158-Asn171) of heparanase; VH SEQ ID NO: 7, VL SEQ ID NO: 8 (antibody)
VH: EVKLLESGGGLVQPGGSLKLSCAASGFDFSRYWMSWVRQAPGKGLEWIGEINPDSSTINYTPSLKDKFIISRDNAKNTLYLQMSKVRSEDTALYYCARRGYEGNYAMDYWGQGTSVTVSSESQSFPNVFPLVSCESPLSDKNLVAMGCLAR
VL: DIVMTQAAPSVPVTPGESVSISCRSSKSLLHSNGNTYLYWFLQRPGQSPQLLIYRMSNLASGVPDRFSGSGSGTAFTLRISRVEAEDVGVYYCMQHLEYPFTFGSGTKLEIKRADAAPTVSIFPPSSEQLTSGGASVVCFL
modifications: IgM constant regions
Regarding B1, the “intracellular content of heparanase” value in test [1] is on record as “marked decrease”. In addition, the “uptake and processing of latent 65 kDa heparanase” value in test [2] is “markedly decreased; also recorded: almost complete inhibition”. The “uptake of constitutively active heparanase (GS3)” value in test [3] is on record as “inhibited profoundly”. For the same molecule, in test [4], the “decrease of Raji cell growth (luciferase signal)” value is given as 2-3 fold.
